Experimental data reported in patent publication US20250034266A1.
Read-outs that look alike come from different tables or passages of the source.

Tests used:
human CCR8 (human) [1] = molecular target: human CCR8 (human) (UniProt P51685); assay: FACS on HEK293-human CCR8 cells
human CCR8 (human) [2] = molecular target: human CCR8 (human) (UniProt P51685); assay: FACS on HEK293-human CCR8 cells; remark: listed apart in the source
human CCR8 (human) [3] = molecular target: human CCR8 (human) (UniProt P51685); assay: FACS, competition with AF647-human CCL1 on CHO-K1-human CCR8 cells
human CCR8 (human) [4] = molecular target: human CCR8 (human) (UniProt P51685); assay: as above; remark: listed apart in the source
human CCR4 (human) = molecular target: T1, human CCR4 (human) (UniProt P51679); assay: FACS on ExpiCHO-S-human CCR4 cells
T1 sequence (looked up): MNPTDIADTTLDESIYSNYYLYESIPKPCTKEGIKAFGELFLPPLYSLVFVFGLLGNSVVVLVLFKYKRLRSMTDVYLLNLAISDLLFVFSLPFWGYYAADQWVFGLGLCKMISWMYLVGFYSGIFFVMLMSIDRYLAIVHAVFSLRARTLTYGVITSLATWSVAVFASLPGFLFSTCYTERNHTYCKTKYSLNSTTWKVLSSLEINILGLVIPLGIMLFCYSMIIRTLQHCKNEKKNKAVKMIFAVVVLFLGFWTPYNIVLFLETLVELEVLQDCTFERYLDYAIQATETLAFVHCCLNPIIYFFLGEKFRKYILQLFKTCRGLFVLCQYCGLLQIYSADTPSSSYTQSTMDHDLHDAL

[5] = molecular target: cynomolgus CCR8 (cynomolgus) (UniProt G7NYJ2); assay: FACS on cynomolgus CCR8 cells
human CCR8 (human) [6] = molecular target: human CCR8 (human) (UniProt P51685); assay: FACS on HuT78 cells (endogenous human CCR8)
human CCR8 (human) [7] = molecular target: human CCR8 (human) (UniProt P51685); assay: FACS on HEK293-human CCR8 cells; remark: listed apart in the source
human CCR8 (human) [8] = molecular target: human CCR8 (human) (UniProt P51685); assay: FACS on HEK293-human CCR8 cells; remark: listed apart in the source
human CCR1 (human) = molecular target: T2, human CCR1 (human) (UniProt P32246); assay: FACS on ExpiCHO-S-human CCR1 cells
T2 sequence (looked up): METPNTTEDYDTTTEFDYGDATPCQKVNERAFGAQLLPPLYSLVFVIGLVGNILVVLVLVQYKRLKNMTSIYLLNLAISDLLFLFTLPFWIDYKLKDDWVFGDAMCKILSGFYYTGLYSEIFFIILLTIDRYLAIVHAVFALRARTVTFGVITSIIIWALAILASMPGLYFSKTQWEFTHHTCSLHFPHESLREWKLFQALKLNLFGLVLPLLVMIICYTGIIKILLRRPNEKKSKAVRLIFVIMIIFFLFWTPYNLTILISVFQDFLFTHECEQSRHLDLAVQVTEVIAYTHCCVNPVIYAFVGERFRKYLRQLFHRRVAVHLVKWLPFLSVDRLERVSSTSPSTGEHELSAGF

human CCR8 (human) [9] = molecular target: human CCR8 (human) (UniProt P51685); assay: cell-based or functional assay
[10] = molecular target: cynomolgus CCR8 (cynomolgus) (UniProt G7NYJ2); assay: FACS on ExpiCHO-S-cynomolgus CCR8 cells
[11] = molecular target: cynomolgus CCR8 (cynomolgus) (UniProt G7NYJ2); assay: FACS on HEK293-cynomolgus CCR8 cells
[12] = molecular target: cynomolgus CCR8 (cynomolgus) (UniProt G7NYJ2); assay: FACS on HEK293-cynomolgus CCR8 cells; remark: listed apart in the source
human CCR8 (human) [13] = molecular target: human CCR8 (human) (UniProt P51685); assay: cell-based or functional assay; remark: listed apart in the source
human CCR8 (human) [14] = molecular target: human CCR8 (human) (UniProt P51685); assay: FACS on HEK293-human CCR8 cells; remark: listed apart in the source
human CCR8 (human) [15] = molecular target: human CCR8 (human) (UniProt P51685); assay: FACS on CHO-K1-human CCR8 cells
human CCR8 (human) [16] = molecular target: human CCR8 (human) (UniProt P51685); assay: FACS, competition with CCL1 on CHO-K1-human CCR8 cells
[17] = molecular target: human CCR8 tagged with ProLink (PK) (human) (UniProt P51685); assay: cell-based or functional assay
human CCR8 (human) [18] = molecular target: human CCR8 (human) (UniProt P51685); assay: cell-based or functional assay; remark: listed apart in the source
[19] = molecular target: cynomolgus CCR8 (cynomolgus) (UniProt G7NYJ2); assay: FACS on HEK293-cynomolgus CCR8 cells; remark: listed apart in the source
[20] = molecular target: cynomolgus CCR8 (cynomolgus) (UniProt G7NYJ2); assay: FACS on HEK293-Cynomolgus CCR8 cells
human CCR8 (human) [21] = molecular target: human CCR8 (human) (UniProt P51685); assay: FACS on HuT78 cells (endogenous human CCR8); remark: listed apart in the source
human CCR8 (human) [22] = molecular target: human CCR8 (human) (UniProt P51685); assay: FACS, competition with CCL1 on CHO-K1-human CCR8 cells; remark: listed apart in the source
human CCR8 (human) [23] = molecular target: human CCR8 (human) (UniProt P51685); assay: FACS, competition with AF647-human CCL1 on CHO-K1-human CCR8 cells; remark: listed apart in the source
human CCR8 (human) [24] = molecular target: human CCR8 (human) (UniProt P51685); assay: as above; remark: listed apart in the source
human CCR8 (human) [25] = molecular target: human CCR8 (human) (UniProt P51685); assay: FACS on CHO-K1-human CCR8 cells; remark: listed apart in the source
human CCR8 (human) [26] = molecular target: human CCR8 (human) (UniProt P51685); assay: FACS, competition with AF647-human CCL1 on HEK293-human CCR8 cells
human CCR8 (human) [27] = molecular target: human CCR8 (human) (UniProt P51685); assay: FACS, competition with AF647-human CCL1 on CHO-K1-human CCR8 cells; remark: listed apart in the source
human CCR8 (human) [28] = molecular target: human CCR8 (human) (UniProt P51685); assay: FACS on CHO-K1-human CCR8 cells; remark: listed apart in the source
human CCR8 (human) [29] = molecular target: human CCR8 (human) (UniProt P51685); assay: FACS competition with 4 nM AF647-human CCL1 on human CCR8 cells
[30] = molecular target: cynomolgus CCR8 (cynomolgus) (UniProt G7NYJ2); assay: FACS on HEK293-cynomolgus CCR8 cells; remark: listed apart in the source
[31] = molecular target: cynomolgus CCR8 (cynomolgus) (UniProt G7NYJ2); assay: FACS on HEK293-cynomolgus CCR8 cells; remark: listed apart in the source

Chain of cynomolgus CCR8 (cynomolgus) (G7NYJ2 entry or part of it): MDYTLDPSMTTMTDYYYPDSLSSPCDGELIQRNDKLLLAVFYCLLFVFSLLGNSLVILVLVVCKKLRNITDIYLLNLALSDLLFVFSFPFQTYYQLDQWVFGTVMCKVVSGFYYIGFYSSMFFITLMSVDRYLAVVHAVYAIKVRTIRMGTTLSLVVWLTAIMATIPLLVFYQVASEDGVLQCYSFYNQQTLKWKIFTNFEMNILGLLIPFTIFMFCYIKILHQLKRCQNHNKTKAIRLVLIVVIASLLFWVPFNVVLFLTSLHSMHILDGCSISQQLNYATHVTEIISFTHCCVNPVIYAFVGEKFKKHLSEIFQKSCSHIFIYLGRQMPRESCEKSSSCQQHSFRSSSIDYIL
Chain of human CCR8 (human) (P51685 whole entry): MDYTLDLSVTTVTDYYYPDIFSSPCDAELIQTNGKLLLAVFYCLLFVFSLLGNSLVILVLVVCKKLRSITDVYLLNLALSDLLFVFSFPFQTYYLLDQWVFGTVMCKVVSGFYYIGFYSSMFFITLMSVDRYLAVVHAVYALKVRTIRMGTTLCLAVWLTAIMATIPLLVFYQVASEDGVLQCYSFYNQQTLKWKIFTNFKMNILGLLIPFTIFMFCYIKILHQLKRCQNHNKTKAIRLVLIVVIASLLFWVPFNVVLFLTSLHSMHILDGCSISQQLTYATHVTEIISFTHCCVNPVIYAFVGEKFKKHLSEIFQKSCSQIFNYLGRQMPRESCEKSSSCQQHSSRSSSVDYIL
Chain of human CCR8 tagged with ProLink (PK) (human) (P51685 whole entry): as above

B1: 433H monoclonal antibody (BD Biosciences, #644092) (antibody, from another filing, mouse IgG2a, V domains shown)
VH: EVQLVETGGGLVQPKGSLRLSCAASGFPFNTFAMNWVRQAPGKGLEWLARIRSKSNNYATYYADSVKDRFTISRDDSRRMLYLLMNNVKFEDTAIYYCVRGKENNYGYAMDYWGQGTSVTVSS
VL: DIVMTQAAPSVPVTPGESVSISCRSSQSLLHSNGNTYLYWFLQRPGQSPQLLIYRMSNLASGVPDRFSGSGSGTAFTLRISRVEAEDVGVYYCMQHLEYPFTFGIGTKLELKR
B1 was tested, and the EC50 (human CCR8 (human) [1]) was 0.215 nM, the Max MFI (human CCR8 (human) [1]) was 5940 MFI and the EC50 (human CCR8 (human) [2]) was 0.0878 nM. The Max MFI (human CCR8 (human) [2]) was 3890 MFI, the IC50 (human CCR8 (human) [3]) was 0.198 nM and the Max Inhibition (%) (human CCR8 (human) [3]) was 99.6%. For the same binder, the IC50 (human CCR8 (human) [4]) was 0.171 nM, the Max Inhibition (%) (human CCR8 (human) [4]) was 98.7% and the Max MFI (human CCR4 (human)) was 6.1 MFI. For the same binder, the Binding Ratio (GFP + MFI)/(GFP - MFI) [5] was 7.9, the EC50 (human CCR8 (human) [6]) was 0.123 nM and the Max MFI (human CCR8 (human) [6]) was 60800 MFI. For the same binder, the EC50 (human CCR8 (human) [7]) was 0.119 nM, the Max MFI (human CCR8 (human) [7]) was 2810 MFI and the EC50 (human CCR8 (human) [8]) was 0.117 nM. For the same binder, the Max MFI (human CCR8 (human) [8]) was 2020 MFI, the Max MFI (human CCR1 (human)) was 133 MFI and the IC50, inhibition of CCL1 induced β-Arrestin recruitment (human CCR8 (human) [9]) was 0.89 nM. The Max Inhibition (%), CCL1 induced β-Arrestin recruitment (human CCR8 (human) [9]) was 92.5%, the Max MFI [10] was 27 MFI and the EC50 [11] was 9.08 nM. The Max MFI [11] was 802 MFI, the Max MFI [12] was 2340 MFI and the IC50, inhibition of CCL1 induced β-Arrestin recruitment (human CCR8 (human) [13]) was 0.23 nM. The Max Inhibition (%), CCL1 induced β-Arrestin recruitment (human CCR8 (human) [13]) was 92.6%, the EC50 (human CCR8 (human) [14]) was 0.197 nM and the Max MFI (human CCR8 (human) [14]) was 2780 MFI. The EC50 (human CCR8 (human) [15]) was 0.0823 nM, the Max MFI (human CCR8 (human) [15]) was 814000 MFI and the IC50 (human CCR8 (human) [16]) was 0.178 nM. The Max Inhibition (%) (human CCR8 (human) [16]) was 99.6%, the IC50, inhibition of CCL1 induced β-Arrestin recruitment, CHO-K1-human CCR8 β-Arrestin cells [17] was 6.54 nM and the Max Inhibition (%), CCL1 induced β-Arrestin recruitment, CHO-K1-human CCR8 β-Arrestin cells [17] was 80.3%. It also gave an IC50, blocking of CCL1 induced cell migration (human CCR8 (human) [18]) of 1.25 nM, an IC50, blocking of cell migration induced by CCL1 (human CCR8 (human) [18]) of 0.278 nM and an IC50, inhibition of CCL1 induced β-Arrestin recruitment (human CCR8 (human) [18]) of 1.06 nM. It also gave a Max Inhibition (%), CCL1 induced β-Arrestin recruitment (human CCR8 (human) [18]) of 89.9%, a Max Inhibition (%), cell migration induced by CCL1 (human CCR8 (human) [18]) of 104% and a Max inhibition (%), CCL1 induced cell migration (human CCR8 (human) [18]) of 117%. For the same binder, the EC50 [19] was 19.4 nM, the Max MFI [19] was 1.72e+06 MFI and the Max MFI [20] was 2010 MFI. It also gave a Max MFI (human CCR8 (human) [21]) of 31900 MFI, an IC50 (human CCR8 (human) [22]) of 0.114 nM and a Max Inhibition (%) (human CCR8 (human) [22]) of 100%. For the same binder, the IC50 (human CCR8 (human) [23]) was 0.193 nM, the Max Inhibition (%) (human CCR8 (human) [23]) was 99.1% and the IC50 (human CCR8 (human) [24]) was 0.243 nM. For the same binder, the Max Inhibition (%) (human CCR8 (human) [24]) was 96%, the Binding Ratio (GFP + MFI)/(GFP - MFI) (human CCR8 (human) [25]) was 158 and the EC50 (human CCR8 (human) [25]) was 0.124 nM. It also gave a Max MFI (human CCR8 (human) [25]) of 4920 MFI, an IC50 (human CCR8 (human) [26]) of 0.335 nM and a Max Inhibition (%) (human CCR8 (human) [26]) of 98.8%. It also gave an IC50 (human CCR8 (human) [27]) of 0.143 nM, a Max Inhibition (%) (human CCR8 (human) [27]) of 99.8% and an EC50 (human CCR8 (human) [28]) of 0.0699 nM. For the same binder, the Max MFI (human CCR8 (human) [28]) was 215000 MFI, the Inhibition Rate (%) (human CCR8 (human) [29]) was 100% and the Max MFI [30] was 1240 MFI. The Max MFI [31] was 648000 MFI.
